# In article PMC4254511:
# Molecular target: ICP8 (Infected Cell Polypeptide 8, HSV-1 SSB) (herpes simplex virus-1, UniProt P04296 1-1196)
# Assay: thermal shift assay
# ICP8 (Infected Cell Polypeptide 8, HSV-1 SSB), sequence (P04296 whole entry): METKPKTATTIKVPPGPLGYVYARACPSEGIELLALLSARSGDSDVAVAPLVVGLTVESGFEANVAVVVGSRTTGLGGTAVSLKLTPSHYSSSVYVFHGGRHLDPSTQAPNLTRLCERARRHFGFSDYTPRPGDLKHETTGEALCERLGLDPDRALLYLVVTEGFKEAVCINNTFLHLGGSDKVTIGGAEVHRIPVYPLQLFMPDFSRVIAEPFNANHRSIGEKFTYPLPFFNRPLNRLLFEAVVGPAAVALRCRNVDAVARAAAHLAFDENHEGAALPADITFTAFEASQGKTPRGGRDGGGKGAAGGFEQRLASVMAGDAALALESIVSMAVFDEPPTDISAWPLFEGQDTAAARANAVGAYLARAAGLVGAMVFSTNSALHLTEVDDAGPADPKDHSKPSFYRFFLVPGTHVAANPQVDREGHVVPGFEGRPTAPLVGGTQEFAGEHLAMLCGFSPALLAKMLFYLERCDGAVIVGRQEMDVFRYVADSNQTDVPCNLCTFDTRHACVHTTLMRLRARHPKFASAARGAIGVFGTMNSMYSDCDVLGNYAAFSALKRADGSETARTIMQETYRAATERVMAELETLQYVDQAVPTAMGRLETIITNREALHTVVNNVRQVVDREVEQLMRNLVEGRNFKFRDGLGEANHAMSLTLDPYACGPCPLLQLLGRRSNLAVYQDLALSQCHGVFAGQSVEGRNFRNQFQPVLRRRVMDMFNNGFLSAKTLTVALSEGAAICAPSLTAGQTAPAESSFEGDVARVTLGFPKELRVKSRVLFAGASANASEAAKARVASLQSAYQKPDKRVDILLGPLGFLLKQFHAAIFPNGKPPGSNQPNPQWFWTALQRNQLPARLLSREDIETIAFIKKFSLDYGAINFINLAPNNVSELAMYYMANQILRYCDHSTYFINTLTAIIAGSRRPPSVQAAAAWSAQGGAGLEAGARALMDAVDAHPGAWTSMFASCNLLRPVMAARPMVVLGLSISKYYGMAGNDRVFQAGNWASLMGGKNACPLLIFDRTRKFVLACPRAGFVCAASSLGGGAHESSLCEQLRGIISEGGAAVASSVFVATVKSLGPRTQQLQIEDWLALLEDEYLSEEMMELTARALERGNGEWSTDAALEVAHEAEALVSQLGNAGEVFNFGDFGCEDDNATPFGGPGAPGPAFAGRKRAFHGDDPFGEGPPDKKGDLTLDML
binder,measurement,value
TTTTTTTTTTTTTTTTTTTT (ssDNA) [(dT)20],Kd,< 1000 nM
